Source: paper PMC7199964, “Grifolin, neogrifolin and confluentin from the terricolous polypore Albatrellus flettii suppress KRAS expression in human colon cancer cells”

Legend:
IMP1 wild type [1] = target: T1, IMP1 wild type (UniProt Q9NZI8 1-577); test: EMSA; IMP1 0-540 nM; smallest region with affinity; FP: 300 nM IMP1, 10 nM probe (inhibitor assays), binding buffer stock 50 mM Tris-Cl pH 7.4, 12.5 mM EDTA pH 8, 25% glycerol, 0.01% Triton-X, 37 C 30 min; EMSA:; conditions: protein: recombinant; (radiolabeled)
T1 sequence (Q9NZI8 whole entry): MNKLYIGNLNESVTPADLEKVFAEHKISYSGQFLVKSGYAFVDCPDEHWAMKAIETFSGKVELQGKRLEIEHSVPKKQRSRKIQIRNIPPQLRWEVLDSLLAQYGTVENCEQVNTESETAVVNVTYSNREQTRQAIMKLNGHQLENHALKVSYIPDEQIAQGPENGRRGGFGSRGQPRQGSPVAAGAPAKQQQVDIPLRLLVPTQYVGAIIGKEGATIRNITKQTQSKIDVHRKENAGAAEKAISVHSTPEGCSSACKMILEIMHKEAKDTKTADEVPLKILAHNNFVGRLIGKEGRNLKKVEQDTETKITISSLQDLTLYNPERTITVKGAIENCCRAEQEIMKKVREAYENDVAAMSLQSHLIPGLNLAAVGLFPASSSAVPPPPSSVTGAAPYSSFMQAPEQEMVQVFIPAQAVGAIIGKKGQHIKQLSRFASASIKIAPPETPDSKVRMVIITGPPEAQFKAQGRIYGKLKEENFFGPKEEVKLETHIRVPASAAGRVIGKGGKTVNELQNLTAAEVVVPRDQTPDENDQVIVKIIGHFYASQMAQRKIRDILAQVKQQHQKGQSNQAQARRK

KH3&4 IMP1 (KH34) = KH3&4 IMP1 (KH34) (UniProt Q9NZI8 405-553); test: fluorescence polarization; confluentin, no effect; FP: 300 nM IMP1, 10 nM probe (inhibitor assays), binding buffer stock 50 mM Tris-Cl pH 7.4, 12.5 mM EDTA pH 8, 25% glycerol, 0.01% Triton-X, 37 C 30 min; EMSA:; conditions: protein: recombinant; label: 3' 6-FL (fluorescein)
Sequence of KH3&4 IMP1 (KH34) (Q9NZI8 405-553): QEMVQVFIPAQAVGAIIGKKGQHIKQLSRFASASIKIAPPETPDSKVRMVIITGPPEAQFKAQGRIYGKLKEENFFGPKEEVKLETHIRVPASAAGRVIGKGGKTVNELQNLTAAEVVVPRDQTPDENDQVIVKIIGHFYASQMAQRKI

IMP1 wild type [2] = target: T1, IMP1 wild type; test: fluorescence polarization; grifolin up to 100 uM, no effect; FP: 300 nM IMP1, 10 nM probe (inhibitor assays), binding buffer stock 50 mM Tris-Cl pH 7.4, 12.5 mM EDTA pH 8, 25% glycerol, 0.01% Triton-X, 37 C 30 min; EMSA:; conditions: protein: recombinant; label: 3' 6-FL (fluorescein)
KH1to4 IMP1 = KH1to4 IMP1 (UniProt Q9NZI8 195-553); test: fluorescence polarization; FP: 300 nM IMP1, 10 nM probe (inhibitor assays), binding buffer stock 50 mM Tris-Cl pH 7.4, 12.5 mM EDTA pH 8, 25% glycerol, 0.01% Triton-X, 37 C 30 min; EMSA:; conditions: protein: recombinant; label: 3' 6-FL (fluorescein)
Sequence of KH1to4 IMP1 (Q9NZI8 195-553): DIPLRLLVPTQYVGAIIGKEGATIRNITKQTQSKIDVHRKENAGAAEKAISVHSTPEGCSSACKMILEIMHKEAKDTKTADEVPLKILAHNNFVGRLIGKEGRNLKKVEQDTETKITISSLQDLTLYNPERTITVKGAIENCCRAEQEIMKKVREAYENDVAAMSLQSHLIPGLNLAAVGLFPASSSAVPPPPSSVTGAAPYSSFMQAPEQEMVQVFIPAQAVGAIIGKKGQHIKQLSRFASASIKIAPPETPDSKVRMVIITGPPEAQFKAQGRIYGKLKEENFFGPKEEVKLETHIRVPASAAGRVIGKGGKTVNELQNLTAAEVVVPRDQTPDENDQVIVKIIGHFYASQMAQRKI

IMP1 wild type [3] = target: T1, IMP1 wild type; test: as above; conditions: protein: recombinant; label: 3' 6-FL (fluorescein)

Q: Does GAAACCUGUCUCUUGGAUAUUCUCGACACAGCAGGUCAU (ssRNA) [39-nt KRAS RNA nts 147-185] bind (IMP1 wild type [1])?
A: Result: binds

Q: Does AUGGAGAAACCUGUCUCUUGGAUAUUCUCGACACAGCAGGUCAU (ssRNA) [44-nt KRAS RNA (nts 142-185)] bind (KH3&4 IMP1 (KH34))?
A: Result: binds

Q: Does AUGGAGAAACCUGUCUCUUGGAUAUUCUCGACACAGCAGGUCAU (ssRNA) [44-nt KRAS RNA (nts 142-185)] bind (IMP1 wild type [2])?
A: Result: binds

Q: Does AUGGAGAAACCUGUCUCUUGGAUAUUCUCGACACAGCAGGUCAU (ssRNA) [44-nt KRAS RNA (nts 142-185)] bind (KH1to4 IMP1)?
A: Result: binds

Q: Does AAAUUAGGGCCCAAUUAAUAAUCAGCAAGAAUUUGAUCG (ssRNA) [39-nt CD44 RNA (nts 2862-2900)] bind (IMP1 wild type [3])?
A: Result: binds
